Data as given in paper PMC12598616, “Design and optimization of caspase-1-responsive fluorescent probes for pyroptosis imaging and anti-pyroptosis drug screening” (Chemical Science, 2025).

Target: T1, caspase-1 (Homo sapiens, UniProt P29466)
T1 sequence (P29466 120-297 limits assumed): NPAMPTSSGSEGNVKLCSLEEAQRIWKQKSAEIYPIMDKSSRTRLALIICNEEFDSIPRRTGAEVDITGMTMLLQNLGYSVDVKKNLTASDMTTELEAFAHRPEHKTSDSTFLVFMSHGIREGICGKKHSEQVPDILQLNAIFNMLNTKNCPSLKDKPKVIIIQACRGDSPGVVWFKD
T1 sequence (P29466 317-404 limits assumed): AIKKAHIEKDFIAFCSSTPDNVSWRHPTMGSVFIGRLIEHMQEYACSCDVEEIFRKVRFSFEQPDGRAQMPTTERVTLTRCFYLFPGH
Assay: Enzyme kinetic studies with caspase-1
Format: biochemical
Details: probe 0.5–4 μM, Cas-1 2 U/mL, HEPES assay buffer, 37 °C, read every 2 min, λex 510 nm/λem 585 nm, Lineweaver-Burk plot; read-out: Michaelis constant (KM)
Procedure: The spectral and chemical properties of all probes were then evaluated. Upon interaction with Cas-1, the specific peptide of the probes is cleaved, leading to the disruption of the FRET process in the system and the recovery of donor fluorescence (Fig. 2a). Prior to fluorescence detection, the UV-vis absorption spectra of the probes were acquired. […] Subsequently, the sensitivity of the probes towards Cas-1 was measured in HEPES buffer (50 mM HEPES, 50 mM NaCl, 0.1% chaps, 5% glycerol, 10 mM DTT, 10 mM EDTA). […] The response differences among the probes were more intuitively observed by analyzing the standard curves of fluorescence intensity at 585 nm against the concentration of Cas-1 (Fig. 2b). […] The reaction kinetics of the probes were also measured by monitoring the fluorescence intensity of FPy1, YPy1 and WPy1 (0.5–4 μM) following incubation with Cas-1 (2 U mL^−1) (Fig. S3a–f). […] The reaction time of the probes was also investigated by monitoring the fluorescence spectra of the probes (5 μM) incubated with Cas-1 (2 U mL^−1) at various time intervals (Fig. S4a–c). […] Finally, the selectivity of the probes was evaluated. A series of potential biologically relevant interferents were selected, and the results illustrated that these interferents had no effect on the probes (Fig. S5a–c). […]

## –FLTDG– [FPy1, RhoB donor, hNR quencher]
  Km: 4.42 µM
